This note sets out measurements from patent US20260209348A1 (University of California, published 2026).

One may read the Kd as the free concentration of one partner at which half of the binding sites on the other are occupied at equilibrium, for simple one-to-one binding.

The target of the test is human ROR2 (human, UniProt Q01974 34-403, limits assumed). In words: SPR. Summed up: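 Values are dissociation constants (Kd, nM) for binding to human ROR2, measured by surface plasmon resonance. The monoclonal antibodies tested were humanized anti-human ROR2 antibodies built from murine complementarity-determining regions placed into human acceptor frameworks, with a human IgG1 constant region. Antigen format, concentrations, temperature, buffer and replicates are not given.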
In general terms: In SPR one partner is held on a chip, and binding of the other changes the refractive index at the surface.

human ROR2, sequence (Q01974 34-403 limits assumed): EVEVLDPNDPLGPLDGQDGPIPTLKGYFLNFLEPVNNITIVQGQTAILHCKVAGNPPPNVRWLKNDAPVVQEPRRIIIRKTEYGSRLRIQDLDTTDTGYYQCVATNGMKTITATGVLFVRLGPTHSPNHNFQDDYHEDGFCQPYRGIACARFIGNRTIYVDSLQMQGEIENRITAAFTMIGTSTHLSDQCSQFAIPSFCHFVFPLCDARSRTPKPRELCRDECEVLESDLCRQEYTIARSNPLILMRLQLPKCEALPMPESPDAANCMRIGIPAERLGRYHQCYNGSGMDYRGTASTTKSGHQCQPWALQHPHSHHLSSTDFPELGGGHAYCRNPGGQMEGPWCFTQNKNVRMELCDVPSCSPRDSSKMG

B1: h6E6-002 (antibody, V domains shown)
VH: EVQLVESGGGLVKPGGSLRLSCAASGFTFSSYGISWVRQAPGKGLEWVSTISSGGGYTHYAESVKGRFTISRDNAKNSLYLQMNSLRAEDTAVYYCARHPRDFSYAMDYWGQGTTVTVSS
VL: EIVMTQSPATLSVSPGERATLSCRASQDVGHYLAWYQQKPGQAPRLLIYWASTRHTGIPARFSGSGSGTEFTLTISSLQSEDFAVYYCQQYNIYPWTFGQGTKVEIK
notes: also called clone 2
For B1, the affinity, expressed as Kd, was 0.284 nM.

B2: h6E6-003 (antibody, V domains shown)
VH: EVQLVESGGGLVKPGGSLRLSCAASGFTFSQYGTSWVRQAPGKGLEWVSTISSGGGYTHYAESVKGRFTISRDNAKNSLYLQMNSLRAEDTAVYYCARHPRDFSYAHDYWGQGTTVTVSS
VL: EIVMTQSPATLSVSPGERATLSCRASQDVGHYLAWYQQKPGQAPRLLIYWASTRHTGIPARFSGSGSGTEFTLTISSLQSEDFAVYYCQQYNIYPWTFGQGTKVEIK
notes: also called clone 3
B2 had a dissociation constant Kd of 0.321 nM.

B3: h6E6-015 (antibody, V domains shown)
VH: EVQLVESGGGLVKPGGSLRLSCAASGFTFSNYGLSWVRQAPGKGLEWVSTISSGGGYTHYVTSVKGRFTISRDNAKNSLYLQMNSLRAEDTAVYYCARHPRDFSYALDYWGQGTTVTVSS
VL: EIVMTQSPATLSVSPGERATLSCKASQDVGHYVAWYQQKPGQAPRLLIYWASTRHTGIPARFSGSGSGTEFTLTISSLQSEDFAVYYCQQYNIYPWTFGQGTKVEIK
notes: also called clone 15
B3 yielded a Kd of 0.386 nM.

B4: h6E6-009 (antibody, V domains shown)
VH: EVQLVESGGGLVKPGGSLRLSCAASGFTFSGYGMNWVRQAPGKGLEWVSTISSGGGYTHYAESVKGRFTISRDNAKNSLYLQMNSLRAEDTAVYYCARHPRDFSYAADYWGQGTTVTVSS
VL: EIVMTQSPATLSVSPGERATLSCKASQDVGHYLAWYQQKPGQAPRLLIYWASTRATGIPARFSGSGSGTEFTLTISSLQSEDFAVYYCQQYNIYPWTFGQGTKVEIK
notes: also called clone 9
Consider B4, for which the Kd amounted to 0.215 nM.

B5: h6E6-022 (antibody, V domains shown)
VH: EVQLVESGGGLVKPGGSLRLSCAASGFTFSKYGTSWVRQAPGKGLEWVSTISSGGGYTHYAPSVKGRFTISRDNAKNSLYLQMNSLRAEDTAVYYCARHPRDFSYAMDYWGQGTTVTVSS
VL: EIVMTQSPATLSVSPGERATLSCKASQDVGHYVAWYQQKPGQAPRLLIYWASTRATGIPARFSGSGSGTEFTLTISSLQSEDFAVYYCQQYNIYPWTFGQGTKVEIK
notes: also called clone 22
With B5, binding was characterised by a dissociation constant (Kd) of 0.271 nM.

B6: h6E6-005 (antibody, V domains shown)
VH: EVQLVESGGGLVKPGGSLRLSCAASGFTFSGYGLSWVRQAPGKGLEWVSTISSGGGYTHYAASVKGRFTISRDNAKNSLYLQMNSLRAEDTAVYYCARHPRDFSYAMDYWGQGTTVTVSS
VL: EIVMTQSPATLSVSPGERATLSCKASQDVGHYVAWYQQKPGQAPRLLIYWASTRATGIPARFSGSGSGTEFTLTISSLQSEDFAVYYCQQYNIYPWTFGQGTKVEIK
notes: also called clone 5
With B6, the Kd is 0.476 nM.

B7: h6E6-024 (antibody, V domains shown)
VH: EVQLVESGGGLVKPGGSLRLSCAASGFTFSEYGMSWVRQAPGKGLEWVSTISSGGGYTHYVESVKGRFTISRDNAKNSLYLQMNSLRAEDTAVYYCARHPRDFSYAMDYWGQGTTVTVSS
VL: EIVMTQSPATLSVSPGERATLSCRASQDVGHYVAWYQQKPGQAPRLLIYWASTRATGIPARFSGSGSGTEFTLTISSLQSEDFAVYYCQQYNIYPWTFGQGTKVEIK
notes: also called clone 24
Consider B7, for which the Kd stood at 0.605 nM.

B8: h6E6-012 (antibody, V domains shown)
VH: EVQLVESGGGLVKPGGSLRLSCAASGFTFSAYGASWVRQAPGKGLEWVSSISSGGGYTHYVESVKGRFTISRDNAKNSLYLQMNSLRAEDTAVYYCARHPRDFSYAQDYWGQGTTVTVSS
VL: EIVMTQSPATLSVSPGERATLSCRASQDVGHYLAWYQQKPGQAPRLLIYWASTRATGIPARFSGSGSGTEFTLTISSLQSEDFAVYYCQQYNIYPWTFGQGTKVEIK
notes: also called clone 12
As for B8, binding was put at a Kd of 1.4 nM.

B9: h6E6-006 (antibody, V domains shown)
VH: EVQLVESGGGLVKPGGSLRLSCAASGFTFSTYGMSWVRQAPGKGLEWVSTISSGGGYTHYATSVKGRFTISRDNAKNSLYLQMNSLRAEDTAVYYCARHPRDFSYAHDYWGQGTTVTVSS
VL: EIVMTQSPATLSVSPGERATLSCRASQDVGHYLAWYQQKPGQAPRLLIYWASTRATGIPARFSGSGSGTEFTLTISSLQSEDFAVYYCQQYNIYPWTFGQGTKVEIK
notes: also called clone 6
Consider B9, for which the Kd was found to be 0.166 nM.

B10: h6E6-016 (antibody, V domains shown)
VH: EVQLVESGGGLVKPGGSLRLSCAASGFTFSAYGMSWVRQAPGKGLEWVSTISSGGGYTHYATSVKGRFTISRDNAKNSLYLQMNSLRAEDTAVYYCARHPRDFSYAQDYWGQGTTVTVSS
VL: EIVMTQSPATLSVSPGERATLSCKASQDVGHYVAWYQQKPGQAPRLLIYWASTRHTGIPARFSGSGSGTEFTLTISSLQSEDFAVYYCQQYNIYPWTFGQGTKVEIK
notes: also called clone 16
As for B10, the Kd was determined as 0.037 nM.

B11: h6E6-020 (antibody, V domains shown)
VH: EVQLVESGGGLVKPGGSLRLSCAASGFTFSKYGVSWVRQAPGKGLEWVSTISSGGGYTHYAPSVKGRFTISRDNAKNSLYLQMNSLRAEDTAVYYCARHPRDFSYAMDYWGQGTTVTVSS
VL: EIVMTQSPATLSVSPGERATLSCKASQDVGHYLAWYQQKPGQAPRLLIYWASTRATGIPARFSGSGSGTEFTLTISSLQSEDFAVYYCQQYNIYPWTFGQGTKVEIK
notes: also called clone 20
As for B11, the affinity, expressed as Kd, was 0.629 nM.

B12: h6E6-023 (antibody, V domains shown)
VH: EVQLVESGGGLVKPGGSLRLSCAASGFTFSSYGMSWVRQAPGKGLEWVSTISSGGGYTHYAPSVKGRFTISRDNAKNSLYLQMNSLRAEDTAVYYCARHPRDFSYALDYWGQGTTVTVSS
VL: EIVMTQSPATLSVSPGERATLSCKASQDVGHYLAWYQQKPGQAPRLLIYWASTRATGIPARFSGSGSGTEFTLTISSLQSEDFAVYYCQQYNIYPWTFGQGTKVEIK
notes: also called clone 23
Turning to B12, the Kd amounted to 0.2 nM.

B13: h6E6-017 (antibody, V domains shown)
VH: EVQLVESGGGLVKPGGSLRLSCAASGFTFSRYGMSWVRQAPGKGLEWVSSISSGGGYTHYAESVKGRFTISRDNAKNSLYLQMNSLRAEDTAVYYCARHPRDFSYAMDYWGQGTTVTVSS
VL: EIVMTQSPATLSVSPGERATLSCKASQDVGHYLAWYQQKPGQAPRLLIYWASTRHTGIPARFSGSGSGTEFTLTISSLQSEDFAVYYCQQYNIYPWTFGQGTKVEIK
notes: also called clone 17
In turn, B13 returned a Kd of 4 nM.

B14: h6E6-014 (antibody, V domains shown)
VH: EVQLVESGGGLVKPGGSLRLSCAASGFTFSSYGMNWVRQAPGKGLEWVSTISSGGGYTHYVDSVKGRFTISRDNAKNSLYLQMNSLRAEDTAVYYCARHPRDFSYATDYWGQGTTVTVSS
VL: EIVMTQSPATLSVSPGERATLSCRASQDVGHYVAWYQQKPGQAPRLLIYWASTRHTGIPARFSGSGSGTEFTLTISSLQSEDFAVYYCQQYNIYPWTFGQGTKVEIK
notes: also called clone 14
As to B14, the Kd is 0.057 nM.

B15: h6E6-010 (antibody, V domains shown)
VH: EVQLVESGGGLVKPGGSLRLSCAASGFTFSNYGMSWVRQAPGKGLEWVSTISSGGGYTHYVASVKGRFTISRDNAKNSLYLQMNSLRAEDTAVYYCARHPRDFSYAMDYWGQGTTVTVSS
VL: EIVMTQSPATLSVSPGERATLSCKASQDVGHYLAWYQQKPGQAPRLLIYWASTRATGIPARFSGSGSGTEFTLTISSLQSEDFAVYYCQQYNIYPWTFGQGTKVEIK
notes: also called clone 10
B15: the Kd was 0.23 nM.
